Data as given in PMC2475632.

Target: T1, Dpo4 (DNA polymerase IV) (Sulfolobus solfataricus, UniProt Q97W02 1-352)
T1 sequence: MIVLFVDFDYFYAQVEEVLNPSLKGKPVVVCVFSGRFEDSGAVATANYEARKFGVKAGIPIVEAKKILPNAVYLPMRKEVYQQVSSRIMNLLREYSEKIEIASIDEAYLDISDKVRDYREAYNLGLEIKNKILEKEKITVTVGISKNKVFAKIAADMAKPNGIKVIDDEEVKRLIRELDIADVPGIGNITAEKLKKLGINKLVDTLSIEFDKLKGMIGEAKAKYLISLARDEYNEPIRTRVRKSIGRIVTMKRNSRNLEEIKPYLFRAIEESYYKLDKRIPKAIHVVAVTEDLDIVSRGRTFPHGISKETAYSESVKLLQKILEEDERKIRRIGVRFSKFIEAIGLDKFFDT
Assay: EMSA

B1: 21-mer/44DDP (dsDNA)
DNA 1: GTCCCTGTTCGGGCGCCAGGA
DNA 2: GATCACGAGACTAGCCTCTGGTCTCCTGGCGCCCGAACAGGGAC
modifications: cisplatin-d(GpG) intrastrand cross-link at template G20-G21 (5' to 3' numbering; GG inferred from primer 23/24 sites)
Work on B1 yielded a Kd of 8 ± 1 nM.

B2: 21-mer/44CTL (dsDNA)
DNA 1: GTCCCTGTTCGGGCGCCAGGA
DNA 2: GATCACGAGACTAGCCTCTGGTCTCCTGGCGCCCGAACAGGGAC
B2 showed a Kd of 18 ± 3 nM.

B3: 25-mer/44DDP (dsDNA)
DNA 1: GTCCCTGTTCGGGCGCCAGGAGACC
DNA 2: GATCACGAGACTAGCCTCTGGTCTCCTGGCGCCCGAACAGGGAC
modifications: cisplatin-d(GpG) intrastrand cross-link at template G20-G21
B3 was tested, and the Kd was 17 ± 4 nM.

B4: 26-mer/44DDP (dsDNA)
DNA 1: GTCCCTGTTCGGGCGCCAGGAGACCA
DNA 2: GATCACGAGACTAGCCTCTGGTCTCCTGGCGCCCGAACAGGGAC
modifications: cisplatin-d(GpG) intrastrand cross-link at template G20-G21
B4 gave a Kd of 12 ± 2 nM.

B5: 22-mer/44CTL (dsDNA)
DNA 1: GTCCCTGTTCGGGCGCCAGGAG
DNA 2: GATCACGAGACTAGCCTCTGGTCTCCTGGCGCCCGAACAGGGAC
With B5 the Kd was 16 ± 3 nM.

B6: 23-mer/44CTL (dsDNA)
DNA 1: GTCCCTGTTCGGGCGCCAGGAGA
DNA 2: GATCACGAGACTAGCCTCTGGTCTCCTGGCGCCCGAACAGGGAC
B6 showed a Kd of 17 ± 2 nM.

B7: 27-mer/44DDP (dsDNA)
DNA 1: GTCCCTGTTCGGGCGCCAGGAGACCAG
DNA 2: GATCACGAGACTAGCCTCTGGTCTCCTGGCGCCCGAACAGGGAC
modifications: cisplatin-d(GpG) intrastrand cross-link at template G20-G21
Binder B7 has a Kd of 17 ± 3 nM.

B8: 24-mer/44CTL (dsDNA)
DNA 1: GTCCCTGTTCGGGCGCCAGGAGAC
DNA 2: GATCACGAGACTAGCCTCTGGTCTCCTGGCGCCCGAACAGGGAC
For B8, the Kd was 8 ± 1 nM.

B9: 27-mer/44CTL (dsDNA)
DNA 1: GTCCCTGTTCGGGCGCCAGGAGACCAG
DNA 2: GATCACGAGACTAGCCTCTGGTCTCCTGGCGCCCGAACAGGGAC
Binder B9 has a Kd of 13 ± 4 nM.

B10: 25-mer/44CTL (dsDNA)
DNA 1: GTCCCTGTTCGGGCGCCAGGAGACC
DNA 2: GATCACGAGACTAGCCTCTGGTCTCCTGGCGCCCGAACAGGGAC
Work on B10 yielded a Kd of 5 ± 1 nM.

B11: 22-mer/44DDP (dsDNA)
DNA 1: GTCCCTGTTCGGGCGCCAGGAG
DNA 2: GATCACGAGACTAGCCTCTGGTCTCCTGGCGCCCGAACAGGGAC
modifications: cisplatin-d(GpG) intrastrand cross-link at template G20-G21
With B11 the Kd was 21 ± 4 nM.

B12: 26-mer/44CTL (dsDNA)
DNA 1: GTCCCTGTTCGGGCGCCAGGAGACCA
DNA 2: GATCACGAGACTAGCCTCTGGTCTCCTGGCGCCCGAACAGGGAC
B12 was tested, and the Kd was 11 ± 2 nM.

B13: 23-mer/44DDP (dsDNA)
DNA 1: GTCCCTGTTCGGGCGCCAGGAGA
DNA 2: GATCACGAGACTAGCCTCTGGTCTCCTGGCGCCCGAACAGGGAC
modifications: cisplatin-d(GpG) intrastrand cross-link at template G20-G21
For B13, the Kd was 56 ± 9 nM.

B14: 24-mer/44DDP (dsDNA)
DNA 1: GTCCCTGTTCGGGCGCCAGGAGAC
DNA 2: GATCACGAGACTAGCCTCTGGTCTCCTGGCGCCCGAACAGGGAC
modifications: cisplatin-d(GpG) intrastrand cross-link at template G20-G21
With B14 the Kd was 26 ± 3 nM.
